{"source": "the supplement of paper PMC9112550", "about": "“Optimization of the antimicrobial peptide Bac7 by deep mutational scanning” (BMC Biology, 2022);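 further: peptides expressed intracellularly from a pBAD plasmid library in pooled LB shake-flask culture, induced with 0.3% L-arabinose, DNA abundance read by NGS, three biological replicates, DESeq2 with apeglm shrinkage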"}
{"tested_on": "Escherichia coli TOP10", "test": "shrunken log2 fold change of peptide-encoding DNA abundance (4.5 h post-induction vs induction); higher = less antimicrobial activity (less host growth inhibition)", "settings": "time post-induction: 4.5 h; library: site-saturation at positions 5, 18, 19, 20"}
{"sequence": "RRIRVRPPRLPRPRPRPLIKPRP", "shrunken log2 fold change": -0.206}
{"sequence": "RRIRGRPPRLPRPRPRPMDWPRP", "shrunken log2 fold change": 0.929}
{"sequence": "RRIRERPPRLPRPRPRPDCTPRP", "shrunken log2 fold change": 0.104}
{"sequence": "RRIRTRPPRLPRPRPRPVFHPRP", "shrunken log2 fold change": -0.136}
{"sequence": "RRIRWRPPRLPRPRPRPEEAPRP", "shrunken log2 fold change": 0.113}
{"sequence": "RRIRGRPPRLPRPRPRPGGMPRP", "shrunken log2 fold change": 0.662}
{"sequence": "RRIRDRPPRLPRPRPRPKRLPRP", "shrunken log2 fold change": -0.0451}
{"sequence": "RRIRNRPPRLPRPRPRPFRAPRP", "shrunken log2 fold change": -0.00309}
{"sequence": "RRIRIRPPRLPRPRPRPTFSPRP", "shrunken log2 fold change": -0.545}
{"sequence": "RRIRTRPPRLPRPRPRPYNPPRP", "shrunken log2 fold change": -0.224}
{"sequence": "RRIRARPPRLPRPRPRPQVMPRP", "shrunken log2 fold change": -0.00224}
{"sequence": "RRIRRRPPRLPRPRPRPNQFPRP", "shrunken log2 fold change": 0.119}
{"sequence": "RRIRGRPPRLPRPRPRPNRGPRP", "shrunken log2 fold change": -0.0157}
{"sequence": "RRIRYRPPRLPRPRPRPAQPPRP", "shrunken log2 fold change": -0.0284}
{"sequence": "RRIRVRPPRLPRPRPRPGRPPRP", "shrunken log2 fold change": 0.63}
{"sequence": "RRIRWRPPRLPRPRPRPAHGPRP", "shrunken log2 fold change": 0.707}
{"sequence": "RRIRWRPPRLPRPRPRPDADPRP", "shrunken log2 fold change": 3.34}
{"sequence": "RRIRCRPPRLPRPRPRPFRVPRP", "shrunken log2 fold change": -0.32}
{"sequence": "RRIRARPPRLPRPRPRPMNQPRP", "shrunken log2 fold change": -0.135}
{"sequence": "RRIRIRPPRLPRPRPRPQERPRP", "shrunken log2 fold change": -0.17}
{"sequence": "RRIRRRPPRLPRPRPRPPMKPRP", "shrunken log2 fold change": 0.522}
{"sequence": "RRIRQRPPRLPRPRPRPRSCPRP", "shrunken log2 fold change": 0.268}
{"sequence": "RRIRPRPPRLPRPRPRPLIEPRP", "shrunken log2 fold change": -0.0879}
{"sequence": "RRIRTRPPRLPRPRPRPARMPRP", "shrunken log2 fold change": 0.127}
{"sequence": "RRIRTRPPRLPRPRPRPVCHPRP", "shrunken log2 fold change": -0.173}
{"sequence": "RRIRHRPPRLPRPRPRPGWKPRP", "shrunken log2 fold change": 0.0976}
{"sequence": "RRIRIRPPRLPRPRPRPANNPRP", "shrunken log2 fold change": -0.449}
{"sequence": "RRIRDRPPRLPRPRPRPNPWPRP", "shrunken log2 fold change": 0.111}
{"sequence": "RRIRERPPRLPRPRPRPQWKPRP", "shrunken log2 fold change": -0.0957}
{"sequence": "RRIRCRPPRLPRPRPRPHQWPRP", "shrunken log2 fold change": 0.321}
{"sequence": "RRIRPRPPRLPRPRPRPAVLPRP", "shrunken log2 fold change": 0.163}
{"sequence": "RRIRERPPRLPRPRPRPTIYPRP", "shrunken log2 fold change": 0.00607}
{"sequence": "RRIRYRPPRLPRPRPRPPNEPRP", "shrunken log2 fold change": -0.106}
{"sequence": "RRIRVRPPRLPRPRPRPRIDPRP", "shrunken log2 fold change": -0.216}
{"sequence": "RRIRERPPRLPRPRPRPSTCPRP", "shrunken log2 fold change": -0.324}
{"sequence": "RRIRKRPPRLPRPRPRPLARPRP", "shrunken log2 fold change": 0.213}
{"sequence": "RRIRNRPPRLPRPRPRPSRCPRP", "shrunken log2 fold change": 0.283}
{"sequence": "RRIRPRPPRLPRPRPRPRLAPRP", "shrunken log2 fold change": 0.507}
{"sequence": "RRIRNRPPRLPRPRPRPSFDPRP", "shrunken log2 fold change": -0.427}
{"sequence": "RRIRERPPRLPRPRPRPCLIPRP", "shrunken log2 fold change": -0.0716}
{"sequence": "RRIRSRPPRLPRPRPRPRNYPRP", "shrunken log2 fold change": -0.465}
{"sequence": "RRIRKRPPRLPRPRPRPDGTPRP", "shrunken log2 fold change": 0.293}
{"sequence": "RRIRARPPRLPRPRPRPNNSPRP", "shrunken log2 fold change": -0.483}
{"sequence": "RRIRPRPPRLPRPRPRPPHFPRP", "shrunken log2 fold change": 0.646}
{"sequence": "RRIRLRPPRLPRPRPRPSKVPRP", "shrunken log2 fold change": -0.117}
{"sequence": "RRIRGRPPRLPRPRPRPIQVPRP", "shrunken log2 fold change": 0.118}
{"sequence": "RRIRHRPPRLPRPRPRPTHCPRP", "shrunken log2 fold change": -0.000996}
{"sequence": "RRIRCRPPRLPRPRPRPEHKPRP", "shrunken log2 fold change": -0.221}
{"sequence": "RRIRVRPPRLPRPRPRPWTAPRP", "shrunken log2 fold change": -0.12}
{"sequence": "RRIRARPPRLPRPRPRPFQDPRP", "shrunken log2 fold change": -0.297}
{"sequence": "RRIRDRPPRLPRPRPRPETMPRP", "shrunken log2 fold change": 0.0179}
{"sequence": "RRIRPRPPRLPRPRPRPAEQPRP", "shrunken log2 fold change": 0.411}
{"sequence": "RRIRSRPPRLPRPRPRPHRRPRP", "shrunken log2 fold change": 0.0441}
{"sequence": "RRIRKRPPRLPRPRPRPIGFPRP", "shrunken log2 fold change": -0.00176}
{"sequence": "RRIRPRPPRLPRPRPRPNESPRP", "shrunken log2 fold change": -0.00438}
{"sequence": "RRIRARPPRLPRPRPRPKKEPRP", "shrunken log2 fold change": 0.0428}
{"sequence": "RRIRHRPPRLPRPRPRPQIWPRP", "shrunken log2 fold change": -0.327}
{"sequence": "RRIRQRPPRLPRPRPRPETYPRP", "shrunken log2 fold change": -0.213}
{"sequence": "RRIRYRPPRLPRPRPRPPPHPRP", "shrunken log2 fold change": 0.737}
{"sequence": "RRIRPRPPRLPRPRPRPDVKPRP", "shrunken log2 fold change": -0.137}
{"sequence": "RRIRRRPPRLPRPRPRPQGNPRP", "shrunken log2 fold change": 0.0869}
{"sequence": "RRIRCRPPRLPRPRPRPMPCPRP", "shrunken log2 fold change": -0.688}
{"sequence": "RRIRSRPPRLPRPRPRPQYFPRP", "shrunken log2 fold change": -0.18}
{"sequence": "RRIRFRPPRLPRPRPRPGDVPRP", "shrunken log2 fold change": -0.014}
{"sequence": "RRIRPRPPRLPRPRPRPMFRPRP", "shrunken log2 fold change": -0.119}
{"sequence": "RRIRDRPPRLPRPRPRPIEQPRP", "shrunken log2 fold change": 0.0525}
{"sequence": "RRIRLRPPRLPRPRPRPFGSPRP", "shrunken log2 fold change": -0.0744}
{"sequence": "RRIRRRPPRLPRPRPRPNHFPRP", "shrunken log2 fold change": -0.0507}
{"sequence": "RRIRYRPPRLPRPRPRPQDRPRP", "shrunken log2 fold change": -0.00674}
{"sequence": "RRIRVRPPRLPRPRPRPCAVPRP", "shrunken log2 fold change": 0.218}
{"sequence": "RRIRNRPPRLPRPRPRPDDSPRP", "shrunken log2 fold change": -0.263}
{"sequence": "RRIRFRPPRLPRPRPRPDYRPRP", "shrunken log2 fold change": -0.0359}
{"sequence": "RRIRQRPPRLPRPRPRPFKDPRP", "shrunken log2 fold change": -0.126}
{"sequence": "RRIRPRPPRLPRPRPRPEGGPRP", "shrunken log2 fold change": 0.329}
{"sequence": "RRIRYRPPRLPRPRPRPAHPPRP", "shrunken log2 fold change": -0.0595}
